Measured values taken from patent publication US10253076B2, “Peptides and combination of peptides for use in immunotherapy against ovarian cancer and other cancers” (immatics biotechnologies GmbH, priority 2015, dated 2019).

Target: HLA-A*02:01 (Homo sapiens, UniProt P04439, D140Y/D185E/D98H/E176V/E277Q/G131W/G231S/I119V/I121R/I166T/I218V/L300P/L318F/N151K/N90K/P208A/P217A/Q86G/Q94H/R138H/R169H/T345S)
Assay: MHC binding assay (UV-ligand exchange, beta2m ELISA, peptide exchange yield)
Details: binding of HLA-class I restricted peptides to HLA-A*02:01, ranged by peptide exchange yield (UV-ligand exchange, β2m ELISA)
Outline: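 Peptide–HLA-A*02:01 complexes made by UV-mediated exchange of a photocleavable peptide with the test peptide. Exchange products diluted 100-fold on streptavidin-coated plates, 1 h at 37°C, then HRP anti-β2m 1 h at 37°C; TMB read at 450 nm to give exchange yield.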

Row | Peptide exchange | Substance
1 | ″+++″ (≥50% = +++) | 558 (GLLENIPRV; listed as Homo sapiens) [compound 558]
2 | ″++″ (≥20% = ++) | 389 (LLADVTHLL; listed as Homo sapiens) [compound 389]
3 | ″+++″ (≥50% = +++) | 583 (ILANDGVLLAA; listed as Homo sapiens) [compound 583]
4 | ″+++″ (≥50% = +++) | 463 (SLVESHLSDQLTL; listed as Homo sapiens) [compound 463]
5 | ″+++″ (≥50% = +++) | 582 (TLCDVILMV; listed as Homo sapiens) [compound 582]
6 | ″+++″ (≥50% = +++) | 530 (VMYADIGGMDI; listed as Homo sapiens) [compound 530]
7 | ″+++″ (≥50% = +++) | 596 (ALLDQTKTLAESAL; listed as Homo sapiens) [compound 596]
8 | ″+++″ (≥50% = +++) | 478 (YLLHEKLNL; listed as Homo sapiens) [compound 478]
9 | ″+++″ (≥50% = +++) | 605 (KLYEAVPQL; listed as Homo sapiens) [compound 605]
10 | ″++++″ (≥75% = ++++) | 568 (TLYDIAHTPGV; listed as Homo sapiens) [compound 568]
11 | ″++″ (≥20% = ++) | 409 (LLDAMNYHL; listed as Homo sapiens) [compound 409]
12 | ″+++″ (≥50% = +++) | 437 (SMAPGLVIQAV; listed as Homo sapiens) [compound 437]
13 | ″+++″ (≥50% = +++) | 616 (VLIDEVESL; listed as Homo sapiens) [compound 616]
14 | ″+++″ (≥50% = +++) | 502 (RLLAQVPGL; listed as Homo sapiens) [compound 502]
15 | ″+++″ (≥50% = +++) | 610 (LLAPTPYIIGV; listed as Homo sapiens) [compound 610]
16 | ″+++″ (≥50% = +++) | 514 (ILVDWLVQV; listed as Homo sapiens) [compound 514]
17 | ″+++″ (≥50% = +++) | 557 (KLYDDMIRL; listed as Homo sapiens) [compound 557]
18 | ″+++″ (≥50% = +++) | 497 (GLLEKLTAI; listed as Homo sapiens) [compound 497]
19 | ″+++″ (≥50% = +++) | 591 (SMAELDIKL; listed as Homo sapiens) [compound 591]
20 | ″+++″ (≥50% = +++) | 441 (ALLENPKMEL; listed as Homo sapiens) [compound 441]

The next lines start with the substance.

Row | Substance | Peptide exchange
21 | 182 (MLLEAPGIFL; listed as Homo sapiens) [compound 182] | ″+++″ (≥50% = +++)
22 | 306 (ALVNVQIPL; listed as Homo sapiens) [compound 306] | ″+++″ (≥50% = +++)
23 | 265 (LLFGGTKTV; listed as Homo sapiens) [compound 265] | ″++″ (≥20% = ++)
24 | 310 (FLVDTPLARA; listed as Homo sapiens) [compound 310] | ″++++″ (≥75% = ++++)
25 | 221 (ALYEEGLLL; listed as Homo sapiens) [compound 221] | ″++″ (≥20% = ++)
26 | 162 (YQQAQVPSV; listed as Homo sapiens) [compound 162] | ″+++″ (≥50% = +++)
27 | 16 (VLFQGQASL; listed as Homo sapiens) [compound 16] | ″+++″ (≥50% = +++)
28 | 209 (KLIESKHEV; listed as Homo sapiens) [compound 209] | ″++″ (≥20% = ++)
29 | 337 (HLLSELEAAPYL; listed as Homo sapiens) [compound 337] | ″++++″ (≥75% = ++++)
30 | 253 (GLDAATATV; listed as Homo sapiens) [compound 253] | ″++″ (≥20% = ++)
31 | 100 (YLLSTNAQL; listed as Homo sapiens) [compound 100] | ″++++″ (≥75% = ++++)
32 | 299 (YLLETSGNL; listed as Homo sapiens) [compound 299] | ″+++″ (≥50% = +++)
33 | 68 (SLMELPRGLFL; listed as Homo sapiens) [compound 68] | ″++++″ (≥75% = ++++)
34 | 119 (FLYIGDIVSL; listed as Homo sapiens) [compound 119] | ″++++″ (≥75% = ++++)
35 | 326 (FLPEALDFV; listed as Homo sapiens) [compound 326] | ″+++″ (≥50% = +++)
36 | 210 (LLLNAVLTV; listed as Homo sapiens) [compound 210] | ″++″ (≥20% = ++)
37 | 381 (FIDEAYVEV; listed as Homo sapiens) [compound 381] | ″++″ (≥20% = ++)
38 | 252 (LLIGTDVSL; listed as Homo sapiens) [compound 252] | ″+++″ (≥50% = +++)
39 | 1 (SLMEPPAVLLL; listed as Homo sapiens) [compound 1] | ″+++″ (≥50% = +++)
40 | 85 (KMSELRVTL; listed as Homo sapiens) [compound 85] | ″+++″ (≥50% = +++)

Row | Substance | Peptide exchange
41 | 154 (ALDDGTPAL; listed as Homo sapiens) [compound 154] | ″++″ (≥20% = ++)
42 | 59 (IMEDIILTL; listed as Homo sapiens) [compound 59] | ″+++″ (≥50% = +++)
43 | 53 (KMIETDILQKV; listed as Homo sapiens) [compound 53] | ″++++″ (≥75% = ++++)
44 | 76 (ILIDSIYKV; listed as Homo sapiens) [compound 76] | ″+++″ (≥50% = +++)
45 | 273 (NLFQSVREV; listed as Homo sapiens) [compound 273] | ″++″ (≥20% = ++)
46 | 279 (ALWGGTQPLL; listed as Homo sapiens) [compound 279] | ″++″ (≥20% = ++)
47 | 21 (VLDELDMEL; listed as Homo sapiens) [compound 21] | ″++″ (≥20% = ++)
48 | 316 (ILLERLWYV; listed as Homo sapiens) [compound 316] | ″+++″ (≥50% = +++)
49 | 153 (FLIANVLYL; listed as Homo sapiens) [compound 153] | ″+″ (≥10% = +)
50 | 215 (QLINHLHAV; listed as Homo sapiens) [compound 215] | ″+++″ (≥50% = +++)
51 | 135 (ALSEVDFQL; listed as Homo sapiens) [compound 135] | ″+++″ (≥50% = +++)
52 | 72 (SLLELDGINL; listed as Homo sapiens) [compound 72] | ″+++″ (≥50% = +++)
53 | 315 (YLQDVVEQA; listed as Homo sapiens) [compound 315] | ″+++″ (≥50% = +++)
54 | 353 (YLFEMDSSL; listed as Homo sapiens) [compound 353] | ″++″ (≥20% = ++)
55 | 229 (RLPGPLGTV; listed as Homo sapiens) [compound 229] | ″++″ (≥20% = ++)
56 | 367 (SLQNHNHQL; listed as Homo sapiens) [compound 367] | ″+++″ (≥50% = +++)
57 | 20 (RMIEYFIDV; listed as Homo sapiens) [compound 20] | ″+++″ (≥50% = +++)
58 | 171 (LLLPLQILL; listed as Homo sapiens) [compound 171] | ″+++″ (≥50% = +++)
59 | 255 (VLASYNLTV; listed as Homo sapiens) [compound 255] | ″+++″ (≥50% = +++)
